{"source": "patent US20130052130A1", "key": {"[1]": {"target": "BSM", "assay": "competition ELISA, BSM-coated plate; competitor is mCC49 at 0.033 ug/mL"}, "[2]": {"target": "TAG-72", "assay": "competition assay, single aliquots; antigen and competitor not stated"}}}
{"substance": "CC49 Fab′-NEM", "values": [{"measurement": "I1/2 fold relative to F(ab′)2 (fold (× the I1/2 of F(ab′)2))", "setting": "[1]", "result": 40}, {"measurement": "Relative Affinity Constant (Ka) (relative to Fab′-NEM defined as 1.0)", "setting": "[2]", "result": 1}]}
{"substance": "CC49 Fab′-dPEG12-Tris(dPEG12 acid)3", "values": [{"measurement": "Relative Affinity Constant (Ka) (relative to Fab′-NEM defined as 1.0)", "setting": "[2]", "result": 0.3}]}
{"substance": "CC49 Fab′-dPEG12-Tris(dPEG12-Tris(m-dPEG11)3)3", "values": [{"measurement": "Relative Affinity Constant (Ka) (relative to Fab′-NEM defined as 1.0)", "setting": "[2]", "result": 0.4}]}
{"substance": "CC49 Fab′-dPEG12-Tris(dPEG24 acid)3", "values": [{"measurement": "I1/2 fold relative to F(ab′)2 (fold (× the I1/2 of F(ab′)2))", "setting": "[1]", "result": 40}, {"measurement": "Relative Affinity Constant (Ka) (relative to Fab′-NEM defined as 1.0)", "setting": "[2]", "result": 1}]}
{"substance": "CC49 Fab′-dPEG12-Tris(m-dPEG24)3", "values": [{"measurement": "Relative Affinity Constant (Ka) (relative to Fab′-NEM defined as 1.0)", "setting": "[2]", "result": 0.3}]}
